The results in this text go back to patent US11634477 (dated 2023).

B1: C008 (antibody, V domains shown)
VH: EVQLVESGGGVVQPGRSLRLSCAASGFTFSSYGMHWVRQAPGKGLEWVTVISYDGRNKYYADSVKGRFTISRDNSKNTLYLQMNSLRAEDTAVYYCAREFGDPEWYFDYWGQGTLVTVSS
VL: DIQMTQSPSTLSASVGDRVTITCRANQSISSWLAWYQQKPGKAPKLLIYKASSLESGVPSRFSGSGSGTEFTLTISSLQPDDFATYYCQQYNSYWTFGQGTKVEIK
B2: C154 (antibody, V domains shown)
VH: QVQLVESGGGVVQPGRSLRLSCAASGFTFSRYGMHWVRQAPGKGLEWVAVMSYDGSSKYYADSVKGRFTISRDNSKNTLCLQMNSLRAEDTAVYYCAKQAGPYCSGGSCYSAPFDYWGQGTLVTVSS
VL: DIQMTQSPSSLSASVGDRVTITCQASQGISNYLNWYQQKPGKAPKLLIYDASNLETGVPSRFSGSGSGTDFTFTISSLQPEDIATYYCQQYDNLPITFGQGTRLEIK
B3: C130 (antibody, V domains shown)
VH: QVQLVQSGAEVKKPGASVKVSCKASGYTFTNYYMHWVRQAPGQGLEWMGIINPSGGSTGYAQKFQGRVTMTRDTSTSTVYMELSSLRSEDTAVYYCARSRPTPDWYFDLWGRGTLVTVSS
VL: SYELTQPPSVSVAPGKTARITCGGNNIGSKSVHWYQQKPGQAPVLVIYYDSDRPSGIPERFSGSNSGNTATLTISRVEAGDEADYYCQVWDSSSDHPGVVFGGGTKLTVL
B4: C103 (antibody, V domains shown)
VH: QVQLQQWGAGLLKPSETLSLTCAVSGGSLSGFYWTWIRQPPGKGLEWIGETNHFGSTGYKPSLKSRVTISVDMSRNQFSLKVTSVTAADTAVYYCARKPLLYSDFSPGAFDIWGQGTMVTVSS
VL: EIVLTQSPGTLSLSPGERATLSCRASQTVTANYLAWYQQKPGQAPRLLIYGASKRATGIPDRFSGSGSGTDFTLSISRLEPEDFAVYYCQQYTTTPRTFGGGTKVEIK
B5: C104 (antibody, V domains shown)
VH: QVQLQQWGAGLLKPSETLSLSCAVYGGSLSGYYWSWIRQPPGKGLEWIGEINHFGSTGYNPSLKSRVTISVDTSKSQFSVKLSSVTAADTAVYYCARKPLLYSNLSPGAFDIWGQGTMVTVSS
VL: B4 VL with L11V, R24W, T28S, T30S, N32S, K54S, S75T, T93G
B6: C164 (antibody, V domains shown)
VH: EVQLVESGGGLVQPGGSLRLSCAASGFSVSTKYMTWVRQAPGKGLEWVSVLYSGGSDYYADSVKGRFTISRDNSKNALYLQMNSLRVEDTGVYYCARDSSEVRDHPGHPGRSVGAFDIWGQGTMVTVSS
VL: QSALTQPASVSGSPGQSITISCTGTSNDVGSYTLVSWYQQYPGKAPKLLIFEVTKRSSGISNRFSGSKSGNTASLTISGLQGEDEADYYCCSYAGASTFVFGGGTKLTVL
B7: C211 (antibody, V domains shown)
VH: EVQLVESGGGLVQPGGSLRLSCAASEFTVSSNYMSWVRQAPGKGLEWVSVIYSGGSTFYADSVKGRFTISRDNSKNTLYLQMNSLRPEDTAVYYCARDYGDFYFDFWGQGTLVTVSS
VL: EIVMTQSPATLSVSPGERATLSCRASQSVSSNLAWYQQKPGQGPRLLIYGASTRATGIPARFSGSGSGTEFTLTISSLQSEDFAVYYCQQYNNWPRTFGQGTKVEIK
B8: C215 (antibody, V domains shown)
VH: EVQLLESGGGLVQPGGSLRLSCAASGFTFSSYAMSWVRQAPGKGLEWVSAITDSGDGTFYADSVKGRFTISRDNSKNTLYLQMNSLRAEDTAVYYCASEEDYSNYVGWFDPWGQGTLVTVSS
VL: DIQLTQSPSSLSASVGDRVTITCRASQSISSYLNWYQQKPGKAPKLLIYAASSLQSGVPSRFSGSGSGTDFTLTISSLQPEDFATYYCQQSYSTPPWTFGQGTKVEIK
B9: C150 (antibody, V domains shown)
VH: EVQLVESGGGLVQPGGSLRLSCVASGFTFSSYWMHWVRQVPGKGPVWVSHINSEGSSTNYADSVRGRFTISRDNAKDTLYLQMNNLRAEDTAVYYCARPTAVAAAGNYFYYYGMDVWGQGTTVTVSS
VL: QSALTQPASVSGSPGQSITISCTGTSSDVGYYNFVSWYQQHPGKAPKLMIYEVSNRPSGVSNRFSGSKSGNTASLIISGLQAEDEADYYCSSYRSSSTLVFGGGTKLTVL
B10: C009 (antibody, V domains shown)
VH: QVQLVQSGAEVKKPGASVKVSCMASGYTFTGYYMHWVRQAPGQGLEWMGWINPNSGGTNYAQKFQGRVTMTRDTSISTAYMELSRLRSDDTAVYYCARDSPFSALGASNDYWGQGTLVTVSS
VL: QSALTQPPSASGSPGQSVTISCTGTSSDVGGYNYVSWYQQHPGKAPKLMIYEVSKRPSGVPDRFSGSKSGNTASLTVSGLQAEDEAEYYCSSDAGSNNVVFGGGTKLTVL
B11: C123 (antibody, V domains shown)
VH: EVQLVESGGGLIQPGGSLRLSCAASGVTVSRNYMSWVRQAPGKGLEWVSVIYSGGSTYYADSVKGRFTISRDNSKNTLYLQMNSLRAEDTAVYYCARDLSAAFDIWGQGTMVTVSS
VL: DIQLTQSPSFLSASVGDRVTITCRASQGISSYLAWYQQKPGKAPKLLIYAASTLQSGVPSRFSGSGSGTEFTLTISSLQPEDFATYYCQQLNSYPPAFGQGTRLEIK
B12: C138 (antibody, V domains shown)
VH: EVQLVESGGGLVQPGGSLRLSCAASGFTFSTYWMSWVRQPPGKGLEWVANIKQDGSEKYYVDSVKGRFTISRDNAKNSLYLQMNSLRADDTAVYYCAGGTWLRSSFDYWGQGTLVTVSS
VL: NFMLTQPHSVSESPGKTVTISCTGSSGSIASNYVQWYQQRPGSAPTTVIYEDNQRPSGVPDRFSGSIDSSSNSASLTISGLKTEDEADYYCQSYDSSNWVFGGGTKLTVL
B13: C022 (antibody, V domains shown)
VH: QVQLQESGPGLVKPSETLSVTCTVSGGSISSSRYYWGWIRQPPGKGLEWIGSIYYSGSTYYNPSLKSRVTISVDTSKNQFSLKLSSVTAADTAVYYCARHAAAYYDRSGYYFIEYFQHWGQGTLVTVSS
VL: DIQMTQSPSTLSASVGDSVTITCRASQSISSWLAWYQQKPGKAPKLLIYKASSLESGVPSRFSGSGSGTEFTLTISSLQPDDFATYYCQQYNNYRYTFGQGTKLEIK

Numbering of substitutions follows the chain as printed.

In general, EC50 refers to the concentration needed to bring the measured effect to its halfway point. Read a high EC50 as weaker potency.

One assay addresses SARS-CoV RBD (SARS-CoV, UniProt P59594). The assay can be described thus: ELISA. On the technique in general: In an ELISA, binding on a coated surface is turned into a signal by an enzyme label.
For the molecule B1, the EC50 is > 1000 ng/mL.
Same read-out and setting: then B2, with 10.7 ng/mL; and B3, with > 1000 ng/mL; and B4, with > 1000 ng/mL.
As to B5, the EC50 was > 1000 ng/mL.
Same read-out and setting: the value for B6 was > 1000 ng/mL; that for B7 was > 1000 ng/mL.
Take B8: the response was half-maximal at 17.9 ng/mL (EC50).
Same read-out and setting: the value for B9 was > 1000 ng/mL; that for B10 was > 1000 ng/mL.
The same measure, in the same setting: then B11, with > 1000 ng/mL.
The same measure, in the same setting: then B12, with > 1000 ng/mL.
The molecule B13 came in with an EC50 of 5.99 ng/mL.

The target of a further assay is SARS-CoV-2 RBD (SARS-CoV-2, UniProt P0DTC2). Kind of assay: ELISA.
With B1, the midpoint of the response, the EC50, lay at 4.63 ng/mL.
The same measure, in the same setting: the value for B2 was 2.92 ng/mL; that for B3 was 2.05 ng/mL.
As for B4, the EC50 was found to be 3.77 ng/mL.
On the same count and under the same terms, the value for B5 was 8.31 ng/mL.
On the same count and under the same terms, then B6, with 2.06 ng/mL.
On the same count and under the same terms, the value for B7 was 2.82 ng/mL; that for B8 was 5.33 ng/mL.
B9 displayed an EC50 of 8.11 ng/mL.
B10 had an EC50 of 1.8 ng/mL.
Still for that read-out and setting: then B11, with 1.92 ng/mL.
For the molecule B12, the response was half-maximal at 2.94 ng/mL (EC50).
Still for that read-out and setting: then B13, with 2.4 ng/mL.
